Assay results published in publication PMC7363144, “Cryo-electron microscopy structure and potential enzymatic function of human six-transmembrane epithelial antigen of the prostate 1 (STEAP1)” (The Journal of Biological Chemistry, 2020).

B1: Fab120.545 mutant R32LE (Fab, V domains shown)
VH: DVQVQESGPGLVKPSQSLSLTCTVTGYSITSDYAWNWIRQFPGNKLEWMGYISNSGSTSYNPSLKSRISITRDTSKNQFFLQLISVTTEDTATYYCARERNYDYDDYYYAMDYWGQGTTLTVSA
VL: DIVMSQSPSSLAVSVGEKVTMSCKSSQSLLYESNQKNYLAWYQQKPGQSPKLLIYWASTRESGVPDRFTGSGSGTDFTLTISSVKAEDLAVYYCQQYYNYPRTFGGGTKLEIK
notes: as the heavy chain of m2; variable region in PDB 6Y9B; as the light chain of m2 with R32E; variable region of the parent in PDB 6Y9B; source: gift from Genmab BV, produced at the authors' request
B2: Fab120.545 mutant D103HA,D105HA,D106HA (Fab, V domains shown)
VH: DVQVQESGPGLVKPSQSLSLTCTVTGYSITSDYAWNWIRQFPGNKLEWMGYISNSGSTSYNPSLKSRISITRDTSKNQFFLQLISVTTEDTATYYCARERNYAYAAYYYAMDYWGQGTTLTVSA
VL: DIVMSQSPSSLAVSVGEKVTMSCKSSQSLLYRSNQKNYLAWYQQKPGQSPKLLIYWASTRESGVPDRFTGSGSGTDFTLTISSVKAEDLAVYYCQQYYNYPRTFGGGTKLEIK
notes: as the heavy chain of m2 with D103A, D105A, D106A; variable region of the parent in PDB 6Y9B; as the light chain of m2; variable region in PDB 6Y9B; also called Fab-AAA; source: gift from Genmab BV, produced at the authors' request
B3: Fab120.545 mutant D103HN,D105HN,D106HN (Fab, V domains shown)
VH: DVQVQESGPGLVKPSQSLSLTCTVTGYSITSDYAWNWIRQFPGNKLEWMGYISNSGSTSYNPSLKSRISITRDTSKNQFFLQLISVTTEDTATYYCARERNYNYNNYYYAMDYWGQGTTLTVSA
VL: DIVMSQSPSSLAVSVGEKVTMSCKSSQSLLYRSNQKNYLAWYQQKPGQSPKLLIYWASTRESGVPDRFTGSGSGTDFTLTISSVKAEDLAVYYCQQYYNYPRTFGGGTKLEIK
notes: as the heavy chain of m2 with D103N, D105N, D106N; variable region of the parent in PDB 6Y9B; as the light chain of m2; variable region in PDB 6Y9B; also called Fab-NNN; source: gift from Genmab BV, produced at the authors' request
B4: Fab120.545 mutant N99LD (Fab, V domains shown)
VH: DVQVQESGPGLVKPSQSLSLTCTVTGYSITSDYAWNWIRQFPGNKLEWMGYISNSGSTSYNPSLKSRISITRDTSKNQFFLQLISVTTEDTATYYCARERNYDYDDYYYAMDYWGQGTTLTVSA
VL: DIVMSQSPSSLAVSVGEKVTMSCKSSQSLLYRSNQKNYLAWYQQKPGQSPKLLIYWASTRESGVPDRFTGSGSGTDFTLTISSVKAEDLAVYYCQQYYDYPRTFGGGTKLEIK
notes: as the heavy chain of m2; variable region in PDB 6Y9B; as the light chain of m2 with N99D; variable region of the parent in PDB 6Y9B; source: gift from Genmab BV, produced at the authors' request

Target: T1, six-transmembrane epithelial antigen of the prostate 1 (STEAP1), full-length human, C-terminal Strep-tag (Homo sapiens)
T1 construct: human STEAP1, UniProtKB Q9UHE8, full length; codon-optimized DNA from GeneArt; Homotrimer in the cryo-EM structure; in digitonin micelles; The PDB model holds residues 67-312 only; source: HEK293 GnTI- suspension cells, purified in digitonin (Strep-Tactin resin, SEC)
T1 sequence (Q9UHE8 2-339): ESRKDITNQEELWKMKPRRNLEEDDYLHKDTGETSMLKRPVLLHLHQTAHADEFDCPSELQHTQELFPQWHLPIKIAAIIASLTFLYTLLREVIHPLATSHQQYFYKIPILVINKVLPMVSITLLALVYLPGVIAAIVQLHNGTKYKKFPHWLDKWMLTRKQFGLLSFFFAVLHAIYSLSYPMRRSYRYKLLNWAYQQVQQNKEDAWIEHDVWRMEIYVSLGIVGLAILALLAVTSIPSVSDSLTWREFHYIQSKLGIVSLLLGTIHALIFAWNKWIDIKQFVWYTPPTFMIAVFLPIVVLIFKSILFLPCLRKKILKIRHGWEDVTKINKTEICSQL
Assay: SEC; 25 µl STEAP1 (0.28 mg/ml) mixed with a ~2-fold molar excess of Fab variant (35 µl at 0.5 mg/ml), several hours, Superdex 200 increase 3.2/300, 20 mM Tris pH 7.8, 200 mM NaCl, 0.08% digitonin; heme absorbance at 412 nm and tryptophan fluorescence
Settings: both partners purified

Binding result, no binding:
B1
B2
B3
B4
